Reference: US20140341917A1 (Merck KGaA, published 2014)
Numbering of substitutions follows the chain as printed. Names and notes keep the numbering of the source.

Columns and labels:
[1] = target: T1, human PD-L1 (human, UniProt Q9NZQ7 19-238, limits assumed); assay: Biacore; relative to A09-188-1
T1 construct: Protein used in the Biacore assays of 3.1

[2] = target: T2, mouse PD-L1 (mouse, UniProt Q9EP73 19-238, limits assumed); assay: ELISA, later Biacore and FACS on PD-L1 expressing cells (hit selection, IgG format)
T2 construct: Biacore protein
T2 sequence (Q9EP73 19-238 limits assumed): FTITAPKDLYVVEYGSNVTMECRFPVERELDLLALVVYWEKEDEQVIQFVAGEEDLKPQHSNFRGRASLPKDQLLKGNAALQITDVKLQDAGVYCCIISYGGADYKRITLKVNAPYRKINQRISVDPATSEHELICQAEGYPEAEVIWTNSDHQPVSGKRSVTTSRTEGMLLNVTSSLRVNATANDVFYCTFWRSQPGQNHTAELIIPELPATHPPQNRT

[3] = target: T1, human PD-L1; assay: Biacore kinetic profile
[4] = target: T3, cynomolgus monkey PD-L1 expressed on the HEK cell surface (cynomolgus monkey, UniProt G7PSE7 19-290); assay: direct FACS binding, HEK cells expressing cynomolgus monkey PD-L1
T3 construct: The sentence prints only 'cynomolgus monkey expressed on the HEK cell surface'
T3 sequence (G7PSE7 entry or part of it limits assumed): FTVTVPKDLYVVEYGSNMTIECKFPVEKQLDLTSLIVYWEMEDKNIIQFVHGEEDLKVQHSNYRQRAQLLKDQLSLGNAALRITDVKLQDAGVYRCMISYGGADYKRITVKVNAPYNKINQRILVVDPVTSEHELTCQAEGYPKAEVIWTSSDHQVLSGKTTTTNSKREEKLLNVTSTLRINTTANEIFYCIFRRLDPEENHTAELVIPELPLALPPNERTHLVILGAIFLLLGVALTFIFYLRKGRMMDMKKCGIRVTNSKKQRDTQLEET

[5] = target: T4, huB7-H2-huFc (human, UniProt O75144 19-258, limits assumed); assay: Biacore
T4 construct: not shown: human Fc (huFc)
T4 sequence (looked up): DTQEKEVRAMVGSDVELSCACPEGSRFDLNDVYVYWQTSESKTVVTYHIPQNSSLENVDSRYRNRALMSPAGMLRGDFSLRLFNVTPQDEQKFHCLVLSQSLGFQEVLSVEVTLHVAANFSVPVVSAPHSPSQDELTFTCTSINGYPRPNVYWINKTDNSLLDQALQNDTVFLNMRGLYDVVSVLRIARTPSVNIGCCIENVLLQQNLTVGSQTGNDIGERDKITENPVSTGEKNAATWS

[6] = target: T5, hu-B7.2-huFc (human, UniProt P42081 26-245, limits assumed); assay: Biacore
T5 construct: not shown: human Fc (huFc)
T5 sequence (looked up): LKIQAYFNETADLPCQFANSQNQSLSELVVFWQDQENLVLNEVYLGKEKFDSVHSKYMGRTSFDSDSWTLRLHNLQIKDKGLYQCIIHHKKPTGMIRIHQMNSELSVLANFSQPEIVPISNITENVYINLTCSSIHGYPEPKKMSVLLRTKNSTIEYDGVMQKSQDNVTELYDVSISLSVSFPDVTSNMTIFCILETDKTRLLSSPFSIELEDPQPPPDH

[7] = target: T6, huB7-H3-huFc (human, UniProt Q5ZPR3-2 29-245, limits assumed); assay: Biacore
T6 construct: not shown: human Fc (huFc)
T6 sequence (looked up): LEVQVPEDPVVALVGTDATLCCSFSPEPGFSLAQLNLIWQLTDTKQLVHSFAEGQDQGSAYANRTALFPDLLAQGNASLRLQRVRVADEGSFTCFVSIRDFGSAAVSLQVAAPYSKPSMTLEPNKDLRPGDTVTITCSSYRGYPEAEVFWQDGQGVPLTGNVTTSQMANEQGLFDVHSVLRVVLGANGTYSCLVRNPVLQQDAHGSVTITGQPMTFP

[8] = target: T7, hu-B7.1-huFc (human, UniProt P33681 35-242, limits assumed); assay: Biacore
T7 construct: not shown: human Fc (huFc)
T7 sequence (looked up): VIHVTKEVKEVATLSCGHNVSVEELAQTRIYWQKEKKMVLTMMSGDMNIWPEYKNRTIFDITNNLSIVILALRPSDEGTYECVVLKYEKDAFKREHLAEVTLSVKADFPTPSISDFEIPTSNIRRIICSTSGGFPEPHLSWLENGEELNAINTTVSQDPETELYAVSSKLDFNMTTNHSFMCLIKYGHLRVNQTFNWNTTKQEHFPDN

[9] = target: T8, hu-PDL-2-huFc (human, UniProt Q9BQ51 20-219, limits assumed); assay: Biacore
T8 construct: not shown: human Fc (huFc)
T8 sequence (looked up): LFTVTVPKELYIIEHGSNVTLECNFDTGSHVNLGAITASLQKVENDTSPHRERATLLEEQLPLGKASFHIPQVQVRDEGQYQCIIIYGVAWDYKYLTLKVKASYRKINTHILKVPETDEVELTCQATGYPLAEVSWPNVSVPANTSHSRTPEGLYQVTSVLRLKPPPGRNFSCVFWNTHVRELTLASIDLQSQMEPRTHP

T1 sequence (Q9NZQ7 19-238 limits assumed): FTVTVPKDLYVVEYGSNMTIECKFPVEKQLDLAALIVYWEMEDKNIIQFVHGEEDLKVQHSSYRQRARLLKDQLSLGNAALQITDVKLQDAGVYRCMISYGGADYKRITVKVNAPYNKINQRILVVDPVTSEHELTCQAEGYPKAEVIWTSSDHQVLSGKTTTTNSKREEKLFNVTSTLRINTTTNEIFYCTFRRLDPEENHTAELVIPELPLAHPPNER

B1: A09-188-1 (antibody, human IgG1, lambda, V domains shown)
VH: EVQLLESGGGLVQPGGSLRLSCAASGFTFSMYMMMWVRQAPGKGLEWVSSIYPSGGITFYADSVKGRFTISRDNSKNTLYLQMNSLRAEDTAIYYCARIKLGTVTTVDYWGQGTLVTVSS
VL: QSALTQPASVSGSPGQSITISCTGTSSDVGAYNYVSWYQQHPGKAPKLMIYDVSNRPSGVSNRFSGSKSGNTASLTISGLQAEDEADYYCSSYTSSSTRVFGTGTKVTVLG
notes: Parent antibody, lambda light chain, expressed as IgG
Relative KD [1]: 1 | binding result [2]: binds | Kd [3]: 5.29 nM | t½ [3]: 0.22 h

B2: A09-248-2 (antibody, human IgG1, lambda, V domains shown)
VH: B1 VH with M31I, M33I, M35F, S63T, I93V
VL: B1 VL with A31G
notes: also called VL-A31G; VH-M31I, M33I, M35F, S63T, I93V
Relative KD [1]: 0.02 | Kd [3]: 0.1 nM | t½ [3]: 7.27 h

B3: A09-246-2 (antibody, human IgG1, lambda, V domains shown)
VH: B1 VH with M31S, M33I, S63T, I93V
VL: B1 VL with A31G
notes: lambda light chain
EC50 [4]: 0.94 nM | binding result [5]: no binding | binding result [6]: no binding | binding result [7]: no binding | binding result [8]: no binding | binding result [9]: no binding
